Target: T1, ヒト可溶性CD4 (human soluble CD4 made in Example 1, C-terminal FLAG-tag, expressed in COS7 cells) (human, UniProt P01730 26-396)
T1 construct: extracellular domain; Purified on anti-FLAG-M2 gel; also called ヒトCD4抗原
Experiment: SPR, BIA-core2000; human soluble CD4 amine-coupled to CM5 chip, antibody as analyte (50 μg/ml)

Binder	Kd [nM]	koff [s⁻¹]
4H5抗体 (anti-human CD4 mouse monoclonal antibody from Mouse-Mouse hybridoma 4H5, FERM P-16807) (antibody, V domains shown, Whole mouse monoclonal antibody from the hybridoma; also called 4H5 antibody; 抗ヒトCD4抗体(4H5抗体)) VH: QVQLQQSGPELVKPGASVKMSCKASGYTFTDYVINWLNQRTGQGLEWIGEIYPGSGSAYYNEMFKGKATLTADKSSNTAYMQLSSLTSEDSAVYFCARRGTGTGFAYWGRGTLVTVSA VL: not shown	0.808	5.33e-06
キメラ4H5抗体 (human-mouse chimeric anti-CD4 antibody expressed from plasmid pG14H5 in COS7 cells) (antibody, V domains shown, The human light chain constant region is not specified; also called chimeric 4H5 antibody; ヒトマウスキメラ抗CD4抗体) VH: LQQSGPELVKPGASVKMSCKASGYTFTDYVINWLNQRTGQGLEWIGEIYPGSGSAYYNEMFKGKATLTADKSSNTAYMQLSSLTSEDSAVYFCARRGTGTGFAYWGRGTLVTVSA VL: LTQSPASLAVSLGQRATISCKASQSVDYDGDSYMNWYQQKPGQPPKLLIYAASNLESGIPARFSGSGSGTDFTLNIHPVEEEDAATYYCQQSSEDPPTFGGGTKLEIK	1.24	2.92e-05
